Target: T1, His-Fur (Vibrio cholerae C7258 (El Tor; Peru, 1991)) (UniProt P0C6C8)
T1 sequence: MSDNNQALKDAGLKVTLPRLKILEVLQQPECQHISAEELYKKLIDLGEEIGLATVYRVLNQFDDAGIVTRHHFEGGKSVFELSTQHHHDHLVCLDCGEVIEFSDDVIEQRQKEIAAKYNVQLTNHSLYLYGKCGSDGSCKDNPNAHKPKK
Assay: EMSA
Details: 10 mM Tris-HCl pH 7.5, 50 mM KCl, 1 mM MgCl2, 100 uM MnCl (so in the source), 0.5 mM DTT, 0.05 mg/ml BSA, 10 mg/ml salmon sperm DNA; room temperature, 20 min (EMSA …)

Sequence: CACTTCTTCGCCTTCTTTGATTGCGCCAGTACGGCGAATATCCAAACGAACAGAAGCGTAGAATTTCAGTGCGTTACCGCCAGTGGTGGTTTCTGGGTTACCAAACATCACACCAATCTT (double strand) [recA fragment (negative control)]
- binding: no binding
